Among the data in patent US20170066801A1, “ALPHA3BETA HYDROGEN BOND SURROGATE MACROCYCLES AS MODULATORS OF RAS” (NEW YORK UNIVERSITY, priority 2014, published 2017) are Kd and fold weaker affinity than α3β-HBSSOS values, retold here.

Non-standard residues stand in square brackets, D forms with d. Residues, ends and D or L forms follow the SMILES beside them. No end group written: not given here. β3hI = CC[C@H](C)[C@H](N)CC(=O)O; β3hE = N[C@@H](CCC(=O)O)CC(=O)O; β3hA = C[C@H](N)CC(=O)O; Flu = fluorescein

Test [1] has as its target T1, HRas^(1-166) (Homo sapiens, UniProt P01112).
T1 construct: 6×His-tagged HRas WT 1-166; made in house
Nature of the test: In vitro pulldown binding assay with 6×His-tagged HRas 1-166 and fluorescein-tagged SOS peptides. Conditions: fluorescein-tagged peptides, 4° C., 1 hour. Here is the method:
Recombinantly purified 6×His-tagged HRas WT 1-166 was incubated with Ni-NTA sepharose beads, generating recombinant Ras on solid support. FITC labeled HBS peptides were incubated in the presence of recombinant HRas-6×His/Ni-NTA Sepharose complex at 4° C. for 1 hour. Beads complexes were pelleted and washed 5× with protein buffer (20 mM Tris-HCl pH 7.6, 50 mM NaCl, 4 mM EDTA, 10 mM MgCl2), resuspended in reducing buffer (126 mM Tris-HCL pH 6.8, 20% glycerol, 4% SDS, 0.02% bromophenol blue, 2.5% β-mercaptoethanol), boiled for 10 minutes at 95° C., and subjected to SDS-PAGE with an acrylamide percentage of 20% to allow for sufficient resolution of the HBS helices. SDS-PAGE gels were imaged using an ImageQuant™ LAS 4000 biomolecular imager (GE Healthcare, Piscataway, N.J., USA). Quantification of fluorescence by FITC-HBS helices in gel was determined by manufacturer provided ImageQuant™ TL software. Raw values were normalized to total input and plotted on a semilog graph with GraphPad Prism version 6.00 for OSX (GraphPad Software, La Jolla Calif. USA, www.graphpad.com).
The binding affinity of the designed compounds for Ras was determined using in vitro pulldown assays with recombinantly purified 6×His-tagged HRas^(1-166) and fluorescein-tagged SOS peptides (FIGS. 8 and 9, and Table 2). […]

Test [2] addresses 6×His-tagged HRas WT 1-166 (UniProt P01112). Put plainly: in vitro pull-down: fluorescein-tagged peptide on 6×His-HRas 1-166 / Ni-NTA beads, in-gel fluorescence.

As to `CC[C@H](C)[C@@H](CC(=O)N[C@@H](Cc1ccc(O)cc1)C(=O)N[C@@H](CCCNC(=N)N)C(=O)N[C@@H](CC(C)C)C(=O)N[C@@H](CCC(=O)O)CC(=O)N[C@@H](CC(C)C)C(=O)N[C@@H](CC(C)C)C(=O)N[C@@H](CCCCN)C(=O)N[C@@H](C)CC(=O)N[C@@H](CCC(=O)O)C(=O)N[C@@H](CCC(=O)O)C(=O)N[C@@H](C)C(=O)N[C@@H](CC(N)=O)C(N)=O)NC(=O)CNC(=O)[C@H](CCC(=O)O)NC(=O)[C@H](Cc1ccccc1)NC(C)=O` [α3β-UNCSOS, Ac-FEGiYRLeLLKaEEAN-NH2] (Ac-FEG[β3hI]YRL[β3hE]LLK[β3hA]EEAN-NH2), in test [1], the Kd (usually the free concentration of one partner at which half of the binding sites on the other are occupied at equilibrium, for simple one-to-one binding) worked out at 30.6 ± 12 µM.

B1: α-HBSSOS (fluorescein-tagged) (peptide)
peptide: FEGIYRLELLKAEEAN
modifications: not fully specified; also: hydrogen bond surrogate macrocycle at N-terminus, fluorescein tag, site and linker not given here
For the molecule B1, the Kd in test [2] is 7.75 µM.

B2: α3β-UNCSOS-Flu (peptide)
peptide: Ac-FEG[β3hI]YRL[β3hE]LLK[β3hA]EEANK(Flu)-NH2
modifications: not fully specified (residue 3); printed as Ac-FEG*iYRLeLLKaEEANK(Flu)-NH2
B2 gave a fold weaker affinity than α3β-HBSSOS in test [2] of 136 fold.
